In the DeepSol protein solubility set:

Experiment: soluble on expression in E. coli; label from the status in PepcDB or PDB records

Sequence | soluble on expression in E. coli
MGSDKIHHHHHHMKMATTHQSSTKQDILEYLHKHEKATALELAEVLDVTPQAIRRHLKDLETEELVLYSTSVQAAGMGRPQHLYELSRQGRDRLHRTMSDRFGDASGNFAVSLLDTLAETVGHDQFKSILEKQWQRKAKEYRDRVGNGSLRERVANLVELRKAEGFMAEYHAVDVNDTFESDRFILMEHNCAISNVAESFPSICGHELEMFAAVLPDCTVERTHWIIDGEHRCGYLVQVRH | not soluble
MYINVVKCMWKQIKHRFEGYPSRMYVARKIIDLGFRIDRNGKIYCDDVEISDVALARAVGVDRRTVRATANTILEDEKLRGIFENMMPAGALLRDAAGELDFGVVEIEADARNPGILAAAARLIADKGISIRQAHAGDPELDETPRLTIITETPIPGGLLKDFLKIDGVKRVSIY | soluble
MDKSLLLELPILLCCFRALSGSLSMRNDAVNEIVAVKNNFPVIEIVQCRMCHLQFPGEKCSRGRGICTATTEEACMVGRMFKRDGNPWLTFMGCLKNCADVKGIRWSVYLVNFRCCRSHDLCNEDL | not soluble
MIDIHNHILVDIDDGPKTIEKSIALLKQAKDEGVTSIVATPHHLHPRYDNTFQQVLVKLAELRTHPEVQALDIKLFPGQEIRITDSILKGLDNGSIQGINRSKYLLIEFPTGEVPHYTKQLFFEIQSRGYIPIIAHPERNRSIAKNPEILYELVANGALSQLTSSSLVGGFGKNIQKLSLQFIECNLAHFVASDAHSCDQRPFLMQELFHNHKLKKYSNDIEALLRNASSVINDNFVYLDRPTKPGKVKSFLKWF | not soluble
MGSDKIHHHHHHMSTIGSDLYNSLGLTTSSKVAKKEDALGQADFLKLMTEQLQHQDPLKPMENSAFLGQLAQFSTVQGIGDLNTKVGNFSDSMNSDQVLKGAALVGHNVLVPSAQVAIDATGSAKGVVAATSAGFVNFEITDANGTFVKQLSVPASAAGEVSFAWDGTDANGNRMAAGKYGITATQTDTAGAKSKLATYVDAPVDSVTIGSDGLYLNLTGLGTSPLANVLRVS | not soluble
AGFQLNEFSSSGLGRAYSGEGAIADDAGNVSRAPALITMFDRPTFSAGAVYIDPDVNISGTSPSGRSLKADNIAPTAWVPNMHFVAPINDQFGWGASITSNYGLATEFNDTYAGGSVGGTTDLETMNLNLSGAYRLNNAWSFGLGFNAVYARAKIERFAGDLGQLVAGQIMQSPAGQTQQGQALAATANGIDSNTKTAHLNGNQWGFGWNAGILYELDKNNRYALTYRSEVKIDFKGNYSSDLNRAFNNYGLPIPTATGGATQSGYLTLNLPEMWEVSGYNRVDPQWAIHYSLAYTSWSQFQQLKATSTSGDTLFQKHEGFKDAYRIALGTTYYYDDNWTFRTGIAFDDSPVPAQNRSISIPDQDRFWLSAGTTYAFNKDASVDVGVSYMHGQSVKINEGPYQFESEGKAWLFGTNFNYAFHHHHHH | soluble
MSSYFPVYLDLKDKEVLVIGGGRVATRKVKTLLEFTKNITIVSPKVTEELKNLIKEKKIKWIDRKFKPSDLKDKFLVVVAVDDIKLQKRVFNLCEKRGILCNSVDSPKYCNFIFPSIIKRGDLVISISTSGKVPALSRALREKIEECLPENIEEIMKELEIIRKSEEKGEERQKKLLRLARELLKNFLEHHHHHH | soluble
SARKKIREYDSKRLLKEHLKRLANIDLQIRSAQVTESTDFTELTNQESWLSSTKLVVKPDMLFGKRGKSGLVALKLDLAEVADFVKARLGTEVEMEGCKAPITTFIVEPFVPHDQEYYLSIVSDRLGCTISFSECGGIEIEENWDKVKTIFLPAEKSMTLEVCAPLIATLPLEVRAKIGNFIMGAFAVFQDLDFSFMEMNPFTLVDGEPFPLDMRGELDDTAAFKNFNKWGDIEFPLPFGRVLSSTENFIHGLDEKTSASLKFTVLNPKGRIWTMVAGGGASVIYADTVGDLGYASELGNYAEYSGAPNEEEVLQYARVVIDCATTDPDGRKRALLIGGGIANFTDVAATFNGIIRALREKETRLKASRMHIYVRRGGPNYQTGLARMRALGEELGVPLEVYGPEATMTGICKRAIDCIMLPDA | not soluble
MKAFISENVRGIYAFDENGNLIEKRYFTDKPEKVLDQLLKGEITKDLEELLNSLKEKGYDEFVFEHPELSRRAKELGFSATTEFPNIAGERLRSNPEEFLGENWFEEYYKVGVALTRMRIQEQSGARDKMVIQAIEALDDVDKVINLLVARLREWYSLHFPELDELLPKHPQYVAFVKTVGHRDNINEEVLRELGLSEEKIKKILEAKEKTMGAWMDQTDIEVVRQLAEEIDRLYQLRKKLEDYIDRAMDDVAPNLKALVGAKLAARLISLAGGLRELAMMPSSTIQVLGAEKALFRHLRTGAKPPKHGVIYQYPAINRSPWWQRGKIARALAGKLAIAARVDYFSGEYIAEELKKELEARIREIKEKYPKPPKRKREERKGKKPWKKDKKKKKKKEKPRRRAAALEHHHHHH | not soluble
MGSDKIHHHHHHMWTGFFSKSGTGIAEERHQNRRACTDVPLLAERNSKHPDRPYGFAKYRQSGLDIYAWHGIYFFPRFPFIDIDCIRWVCAGLKAFKHYIRENGLPDLIHAHRMNYAGILAQKISQKYGIPYVVTEHSSTITRGLIRPHQWQPMEKAAAHASALLAVSRHFAHVLQHKYGCEWQYLPPTYWAEYSTDRLNKEKKTTNRISCSAPSRTFAVSKDTMSYSLPLPGRWHNARNCA | not soluble
MSNRVVIDHIGASGHGISNISHDSLSVPFTLPGEVAIVALRGKYGKLIALEKKSSERIDAICQHFENCGGCVLQHWHADAYRSWKRQLVIDALKRYGIDVFVSPLIEGGYQNRRRITLTALATQKGHIVGFNRYLSHDVIALEECPVTRLEIMSKLNSIKLLCALVGNHTKRFQVTVTSVENGLDVAFNGCVVRDEHIRQQMIHTALAYGMTRLSVEGEILVEREKPLVYFGDVCVEFPAGGFLQATFEAENIMGNIILAYLEKAKNAVDLFSGLGTFTLRMAKKMNVHAVENNETALANLDRAARFATGLKTITCERRDLFRRPLSAKELSCFECVVFDPPRAGAQEQVRELAKTTIPRVVTISCNPVTFARDLSLLVAGGYTIEKIIPIDQFLWSPHVEIVALLSKRKIKANWKL | not soluble
MSLTFHEIRFPEDISYGSTGGPEFSTSIVQTNNGSEYRKVNLSYSRNKYNIMYNMKSEDQLLKLINFFYVHKGKAIGFRFKDWSDYKAKKEHIGIGNDKQKKFQIIKTYSIDQHSYIRKITKPVINTVKIYYDDIEKVDGFSVNFSNGQIEFNTPPHNGVTIYADYEFDVPVRFDSDYLPYSMDNYNEHNCNNIALIEIKTEGHHHHHH | soluble
MGSDKIHHHHHHMSLIHLQADHIRPLVYLHGKVDDHEVAFLEHLNGPPKNAVRVGNTVTFIEHDQTAYSVRAERIQGVLPPAFAGVISDLESGYQFVLGGRSRLAGRPSQLVRIIPNDDNRYSYQVWLDMDTYLPLRYDMLNLEKQLLEQVLVVELIVLDDAPAILREAYKQDWPEIMPQPQREQADNWQFKWLPQGFKILVKDNHRLIGSHEAVEYIALSDGLVNISVYVARAGETALPDELMTRNGLSLAAERVGNAEVVAVGKVPAETLSRIAKSITIE | not soluble
MEASDLTFTVSVDQTTKHVFDAICNVRGWWSEEIEGNTDKRNETFIYQYEDVHYAKIKVQELIPNEKVVWLVTYNYFKFTKDKSEWTGTTIRFDISAKGDKTEIRFTHYGLNPEFECYDICSNAWGQYIGQSLPDLIKSGKGNPNGKNKPTTADEERFSAKNLEHHHHHH | soluble
EDRSVHFDSMSNGQGAASALPIFAEFLKRVYADPKLGYTTEEKFEFPQDFQPCMMDQNVEYFDAGGGEVVEPLPEILVELP | not soluble
MEALAMAGVDYQEWGLSIEEWELQESVVPLHLLADDFKEEEQEEDHQDNDDDDRVLDGLAVKQSVTRDIRASVGKFIEQSMSHMIVHLKQLKFLTLLLENFLFTHVLDFLL | not soluble
MAHHHHHHMDNSHFSKMLKECKIIGKSFTSTDADLLFSKVKAKEARKISFTEFKEKAIPEIAAKMKKTPADIEAMIANAAPKSSGTKADTVRFHDDKSTYTGAAKQGGPTNVDRNAGSLAGVVDRRQETINNRGFTA | soluble
AAGTVFTTVEDLGSKILLTCSLNDSATEVTGHRWLKGGVVLKEDALPGQKTEFKVDSDDQWGEYSCVFLPEPMGTANIQLHGPPRVKAVKSSEHINEGETAMLVCKSESVPPVTDWAWYKITDSEDKALMNGSESRFFVSSSQGRSELHIENLNMEADPGQYRCNGTSSKGSDQAIITLRVRSH | soluble
